The record followed here is patent US20180230213A1 (AVEO PHARMACEUTICALS, published 2018).

Test [1] deals with T1, monomeric recombinant cynomologus monkey Notch3 extracellular domain (containing EGF like domains 1-12) … (cynomologus monkey).
T1 construct: domain: EGF like domains 1-12; also called monomeric rcNotch3
The experiment in a line: SPR BIAcore T100, antibody captured by anti-human IgG Fc, monomeric rcNotch3 analyte, 25 C. On the procedure:
(§1) The binding affinities and kinetics of binding of chimeric and humanized antibodies to monomeric recombinant human Notch3 extracellular domain (containing EGF like domains 1-11) fusion protein (monomeric rhNotch3) and monomeric recombinant cynomologus monkey Notch3 extracellular domain (containing EGF like domains 1-12) fusion protein (monomeric rcNotch3) were measured by surface plasmon resonance, using a BIAcore® T100 instrument (GE Healthcare, Piscataway, N.J.).
(§2) Goat anti-human IgGs (Fc fragment specific, Jackson ImmunoResearch, West Grove, Pa.) were immobilized on carboxymethylated dextran CM4 sensor chips by amine coupling, according to a standard protocol. Analyses were performed at 25 and 37° C. using PBS containing 0.05% surfactant P20 as running buffer. The antibodies were captured in individual flow cells at a flow rate of 10 μL/minute. Injection time was varied for each antibody to yield an Rmax between 30 and 60 RU. Buffer or Notch3 protein diluted in running buffer was injected sequentially over a reference surface (no antibody captured) and the active surface (antibody to be tested) for 240 seconds at 60 μL/minute. The dissociation phase was monitored for up to 900 seconds. The surface was then regenerated with two 60-second injections of 10 mM Glycine-HCl, pH 2.25, at a flow rate of 30 μL/minute. The Notch3 concentration range tested was 50 nM to 6.25 nM.
Kinetic parameters were determined using the kinetic function of the BIAevaluation software (GE Healthcare) with double reference subtraction. Kinetic parameters for each antibody, kₐ (association rate constant), kd (dissociation rate constant), and KD (equilibrium dissociation constant) were determined.
A general note: Surface plasmon resonance follows binding to a sensor surface in real time, without labels.

The target in test [2] is T1, monomeric recombinant cynomologus …. The experiment in a line: SPR BIAcore T100, antibody captured by anti-human IgG Fc, monomeric rcNotch3 analyte, 37 C. On the procedure: as §1, §2
Test [3] concerns the target T2, monomeric recombinant human Notch3 extracellular domain (containing EGF like domains 1-11) fusion protein (human, UniProt Q9UM47 40-467).
T2 construct: domain: EGF like domains 1-11; also called monomeric rhNotch3
T2 sequence (looked up): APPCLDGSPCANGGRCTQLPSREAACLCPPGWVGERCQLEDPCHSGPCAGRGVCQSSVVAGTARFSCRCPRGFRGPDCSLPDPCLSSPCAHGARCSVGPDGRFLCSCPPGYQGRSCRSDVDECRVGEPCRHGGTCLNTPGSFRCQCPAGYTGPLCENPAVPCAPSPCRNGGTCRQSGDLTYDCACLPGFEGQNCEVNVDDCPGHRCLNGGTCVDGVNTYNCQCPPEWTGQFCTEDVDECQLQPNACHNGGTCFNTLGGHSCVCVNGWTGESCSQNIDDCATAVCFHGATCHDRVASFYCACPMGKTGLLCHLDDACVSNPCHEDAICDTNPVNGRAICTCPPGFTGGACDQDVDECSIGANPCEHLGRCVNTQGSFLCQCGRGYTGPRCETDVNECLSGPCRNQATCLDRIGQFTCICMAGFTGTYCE
The experiment in a line: SPR BIAcore T100, monomeric rhNotch3 analyte, 37 C, average of Table 16 and additional measurements. On the procedure: as §2

Test [4] concerns the target T2, monomeric recombinant human Notch3 …. The test is described as follows: SPR BIAcore T100, antibody captured by anti-human IgG Fc, monomeric rhNotch3 analyte, 37 C. On the procedure: as §1, §2
The target in another test is T3, rhJag2-Fc (human, UniProt Q9Y219 27-1080, limits assumed).
T3 construct: also called R&D Cat. No. 1726-JG-050
T3 sequence (Q9Y219 27-1080 limits assumed): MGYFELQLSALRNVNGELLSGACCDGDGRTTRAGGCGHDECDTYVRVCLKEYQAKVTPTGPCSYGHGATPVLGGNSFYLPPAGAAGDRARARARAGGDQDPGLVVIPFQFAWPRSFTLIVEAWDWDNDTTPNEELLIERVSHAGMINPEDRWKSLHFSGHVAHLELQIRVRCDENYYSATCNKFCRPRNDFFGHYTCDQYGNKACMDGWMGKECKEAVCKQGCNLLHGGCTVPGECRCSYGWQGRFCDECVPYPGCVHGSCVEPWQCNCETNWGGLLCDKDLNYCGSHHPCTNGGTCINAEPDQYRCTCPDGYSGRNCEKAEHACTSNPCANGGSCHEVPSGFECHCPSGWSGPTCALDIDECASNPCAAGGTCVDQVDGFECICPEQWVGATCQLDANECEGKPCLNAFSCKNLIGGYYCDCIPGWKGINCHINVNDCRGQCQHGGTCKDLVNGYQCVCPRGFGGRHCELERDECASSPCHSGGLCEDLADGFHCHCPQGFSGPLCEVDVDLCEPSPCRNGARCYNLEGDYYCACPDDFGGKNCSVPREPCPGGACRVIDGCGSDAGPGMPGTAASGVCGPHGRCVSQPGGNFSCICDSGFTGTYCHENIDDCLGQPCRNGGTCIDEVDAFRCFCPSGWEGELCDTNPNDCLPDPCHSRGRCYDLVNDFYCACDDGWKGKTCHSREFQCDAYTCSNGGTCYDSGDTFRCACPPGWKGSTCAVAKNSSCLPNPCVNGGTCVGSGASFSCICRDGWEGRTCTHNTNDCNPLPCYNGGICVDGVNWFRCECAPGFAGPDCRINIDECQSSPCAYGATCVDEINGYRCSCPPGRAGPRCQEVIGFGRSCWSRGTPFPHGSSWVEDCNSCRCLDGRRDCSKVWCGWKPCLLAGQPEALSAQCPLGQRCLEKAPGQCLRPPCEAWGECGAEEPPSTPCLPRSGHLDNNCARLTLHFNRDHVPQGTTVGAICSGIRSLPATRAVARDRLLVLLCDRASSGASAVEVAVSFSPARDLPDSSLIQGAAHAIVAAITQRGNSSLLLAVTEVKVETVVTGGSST
The experiment in a line: BLI (Octet QK): rhNotch3 on the sensor, IgG in place of a Notch3 antibody, then the ligand in solution. On the procedure:
(§3) The 4F11 antibody was tested for its ability to inhibit the binding of rhNotch3 binding to human Jag1, Jag2, DLL1 and DLL4. Binding measurements were made by bio-layer interferometry (BLI), using a FortéBio Octet® QK instrument (ForteBio, Menlo Park, Calif.). The ligands tested were rhJag1-Fc (R&D Cat. No. 1277-JG-050), rhJag2-Fc (R&D Cat. No. 1726-JG-050), rhDLL1-Fc (R&D Cat. No. 5026-DL-050), and His tagged rhDLL4 (R&D Cat. No. 1506-D4-050).
(§4) To determine the degree of inhibition of Notch3-ligand binding by antibody 4F11, the Octet sensors were loaded with recombinant human Notch3, and the antibody was allowed to bind, as described in Example 4. In positive control samples, a commercially available Notch3 polyclonal antibody capable of blocking ligand binding to recombinant human Notch3 (Notch3 Specific Control) was used instead of the 4F11 antibody. Then sensors were immersed in 500 ug/ml human IgG, to block non-specific binding. Ligands were prepared at a concentration of 400 nM in PBS containing 3% BSA, and were allowed to bind. The on-rate and off-rate for ligand binding were detected using the Octet QK instrument and software. The 4F11 antibody blocked binding of all four ligands to rhNotch3-Fc (FIG. 5A-5D).

Another test has as its target T4, rhJag1-Fc (human, UniProt P78504 32-1046, limits assumed).
T4 construct: also called R&D Cat. No. 1277-JG-050
The description is as above. On the procedure:
as §3, §4

The next test deals with T5, His tagged rhDLL4 (human, UniProt Q9NR61 27-524).
T5 construct: also called R&D Cat. No. 1506-D4-050
T5 sequence (Q9NR61 27-524 limits assumed): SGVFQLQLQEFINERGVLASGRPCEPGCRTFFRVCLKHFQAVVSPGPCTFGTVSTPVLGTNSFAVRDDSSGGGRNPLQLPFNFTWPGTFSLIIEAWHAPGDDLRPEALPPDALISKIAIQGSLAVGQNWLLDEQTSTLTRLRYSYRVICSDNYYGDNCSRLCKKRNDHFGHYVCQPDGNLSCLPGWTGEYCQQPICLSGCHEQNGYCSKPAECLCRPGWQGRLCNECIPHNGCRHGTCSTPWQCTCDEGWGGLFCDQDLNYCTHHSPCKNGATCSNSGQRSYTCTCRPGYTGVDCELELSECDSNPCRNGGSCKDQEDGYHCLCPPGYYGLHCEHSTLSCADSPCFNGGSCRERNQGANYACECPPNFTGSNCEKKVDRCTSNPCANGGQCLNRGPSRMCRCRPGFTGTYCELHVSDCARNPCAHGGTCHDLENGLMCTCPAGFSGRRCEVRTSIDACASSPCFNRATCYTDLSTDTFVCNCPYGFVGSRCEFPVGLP
The test is described as above. On the procedure:
as §3, §4

B1: Hu4F11-80 (antibody, human IgG1, kappa, V domains shown)
VH: EVQLLESGGGLVQPGGSLRLSCAASGFAFSHYDMSWVRQAPGKGLEWVSYISRGGGSTYYPDSVKGRFTISRDNSKNTLYLQMNSLRAEDTAVYYCGRHATTAYWYFDVWGQGTMVTVSS
VL: DVVMTQTPLSLSVTPGQPASISCRSSQSLVHTQGNTYLHWYLQKPGQSPQLLIYKVSNRFSGVPDRFSGSGSGTDFTLKISRVEAEDVGVYFCSQSTHVPWTFGQGTKVEIKR
notes: Humanized, human IgG1 kappa; Hv3-23 S31H T62S heavy + Kv2D-29 N28Q kappa
The Kd is the concentration at which binding is half-saturated. By koff is commonly meant a measure of how fast the partners let go of each other. Usually kon stands for a measure of how fast the partners come together. In the case of B1, the Kd in test [1] came to 4 nM; in test [2], 12 nM; in test [3], 14 nM; in test [4], 3.8 nM. Also, the koff in test [1] was determined as 0.0032 s⁻¹; in test [2] it was 0.01 s⁻¹; in test [3] it was 0.0056 s⁻¹; in test [4] it was 0.0041 s⁻¹. The association rate constant (kon) in test [1] amounted to 820000 M⁻¹ s⁻¹; in test [2] it was 910000 M⁻¹ s⁻¹; in test [3], 590000 M⁻¹ s⁻¹; in test [4], 1.1e+06 M⁻¹ s⁻¹.

B2: recombinant human Notch3 extracellular domain (containing EGF like domains 1-11) Fc fusion protein (Fc fusion, UniProt Q9UM47 40-467, looked up, not shown: a dimerising Fc or GST)
chain: T2 sequence (looked up)
notes: domain: EGF like domains 1-11; also called rhNotch3-Fc; rhNotch3
Regarding B2, the binding result with rhJag2-Fc, with rhJag1-Fc and with His tagged rhDLL4 was “binds” throughout.
